The results in this text go back to the RNAGym collection of RNA variant scans (doi:10.1073/pnas.2313332121).

B1: TPR t1 (parent)
chain: GACCAAUCUGCCCUCAGAGCUCGAGAACAUCUUCGGAUGCAGAGGAGGCAGGCUUCGGUGGCGCGAUAGCGCCAACGUCCUCAACCUCCAAUGCAUCCCACCACAUGAUGAUGCCUGAAGAGCCUUGGUUUUUUG

In this series the parent is B1. Kind of series: polymerase ribozyme fitness, log enrichment relative to wild type (log ratio); higher = more active; in vitro selection for triplet polymerase activity. In a few lines:
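Mutant libraries for each subunit of a heterodimeric triplet polymerase ribozyme were made by PCR and then transcribed. Each library underwent one round of in vitro selection in triplicate: annealing with a biotinylated primer, the partner subunit and triplets, frozen incubation at −7 °C, gel excision of extended constructs, streptavidin-bead capture and RT-PCR. Input and output libraries were Illumina-sequenced, and only genotypes with ≥10 input reads and ≥1 read per output were kept. Fitness is the logarithm, base 2, of genotype enrichment over wild-type enrichment, computed from inverse-variance-weighted replicate averages.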
Consider G48U G57C U130C, for which the “polymerase ribozyme fitness (log ratio)” value amounted to 0.0456.
The result for A50C A84C reads -1.1.
With C49A A91U A95G A100C the figure was -6.08; with C49A G77A C82A U92C G113U C114U, -2.49.
The result for G48C C72G U78G U92A C124G reads -2.22; that for C49A C72A C73U C97G C123A, -5.81.
As to A50C G69A U78C C97U, the “polymerase ribozyme fitness (log ratio)” value is -4.07.
The result for G48A G52A C101G reads -2.71; that for G48A U67C, -3.66; that for G48U C72U, -1.19.
With G48C C73U the figure was -0.559; with C49U C82A U87C U96A, -1.66.
The result for C49G G57U reads -0.441; that for C49U C72U C94G, -1.72; that for G48U A91U C123U G127U, -2.98.
Consider A50G G52A, for which the “polymerase ribozyme fitness (log ratio)” value stood at 0.186.
For the variant C49U A91C C123A, the “polymerase ribozyme fitness (log ratio)” value was -1.62.
As for A50C G61U, the “polymerase ribozyme fitness (log ratio)” value was -0.0844.
Take C49U G63A: the “polymerase ribozyme fitness (log ratio)” value was -1.67.
With C49G G51U, the “polymerase ribozyme fitness (log ratio)” value is -3.2.
The result for G48U G57A G58A reads -0.738; that for A50C G57U G113U, -4.25; that for C49U C53U G60A G122A U133G, -1.32.
The result for G48A C76U C85G C89A U96C reads -5.66.
With G47U U78C the figure was -1.44; with A50G G63U C101G G120C U130G, -3.55; with C49U U106A U116G G128A, -5.82.
As for G48A C73U C85A, the “polymerase ribozyme fitness (log ratio)” value was -1.26.
As to G48U C53A C62U C82U U106A A108G, the “polymerase ribozyme fitness (log ratio)” value is -1.03.
With C49U G120C, the “polymerase ribozyme fitness (log ratio)” value is 0.88.
Regarding C49U G120U, the “polymerase ribozyme fitness (log ratio)” value was -0.184.
Take C49G C62A A100U: the “polymerase ribozyme fitness (log ratio)” value was -2.34.
On to G48C A83U A111C A118C, for which the “polymerase ribozyme fitness (log ratio)” value is -0.0367.
As to G48U C88G G113C A121C, the “polymerase ribozyme fitness (log ratio)” value was -3.7.
With C49U U106A C114U the figure was -4.43.
The result for C49G C70U U129A reads -2.63.
The result for G48U C56A C114G G127C reads -5.92.
Take C49A G52A G57A U78A: the “polymerase ribozyme fitness (log ratio)” value was -1.73.
Turning to C49G C115U, the “polymerase ribozyme fitness (log ratio)” value was -1.48.
With C49G C115G, the “polymerase ribozyme fitness (log ratio)” value is -2.98.
With C49G C115A, the “polymerase ribozyme fitness (log ratio)” value was -1.51.
With G48C G60U C86A C94U U106C G117C the figure was -6.53; with C49A A66G C73U, -1.61; with G48A C62U C115U, -3.7.
With G48C A100U the figure was -1.76; with G48C C123U, -0.702.
The result for C49U G60A C82U U106A G120C G135A reads 0.366; that for C49G G120U U132A, -0.00759.
As for G48U A105C, the “polymerase ribozyme fitness (log ratio)” value is -2.86.
With G48U A105U the figure was -2.27.
The result for G48U G110C reads -4.65.
As to C49U C80G, the “polymerase ribozyme fitness (log ratio)” value is -5.44.
Take G48U G57U C85A C114G U129A: the “polymerase ribozyme fitness (log ratio)” value is -6.62.
The result for G48A U130G reads -1.37; that for G48A U130C, -0.486; that for G48U A111U U125G, -4.47.
The result for A50G C89A reads -1.48; that for A50C G58C C98U C123G, 0.72.
With G48C C82A A84C the figure was -1.03; with A50G C56G A103C C115G, -5.53.
For the variant A50G C64U, the “polymerase ribozyme fitness (log ratio)” value is 0.0869.
With G48C G60C G110A, the “polymerase ribozyme fitness (log ratio)” value was -2.42.
With C49U G61U the figure was -0.402.
For the variant C49G C85G U116G, the “polymerase ribozyme fitness (log ratio)” value is -3.63.
On to A50C A91G C124A U133A, for which the “polymerase ribozyme fitness (log ratio)” value turned out to be 1.25.
Turning to C49U G61U U81A C115G, the “polymerase ribozyme fitness (log ratio)” value is -2.05.
The result for G48U C72U C85A U92C G93C C101U reads -3.44; that for G48C C104A C124A, -0.812.
On to G48U U55C, for which the “polymerase ribozyme fitness (log ratio)” value was -1.53.
For the variant C49A A68G A90U, the “polymerase ribozyme fitness (log ratio)” value is -6.08.
For the variant C49A G71A G77C, the “polymerase ribozyme fitness (log ratio)” value is -1.63.
C49G G77U: the “polymerase ribozyme fitness (log ratio)” value is -1.25.
As to C49U G57U C79A, the “polymerase ribozyme fitness (log ratio)” value was -3.24.
The result for C49A G77A U106C C114A reads -2.9.
As to G48C A50G C102A, the “polymerase ribozyme fitness (log ratio)” value is -3.21.
Consider A50C A75G A95C, for which the “polymerase ribozyme fitness (log ratio)” value was -0.114.
Turning to A50G G71A, the “polymerase ribozyme fitness (log ratio)” value is -1.41.
For the variant C49U C62A, the “polymerase ribozyme fitness (log ratio)” value is -2.25.
With C49A U55C G61C C104U the figure was -2.02.
The result for A50G C64U A84U reads -0.379; that for A50C C56A G77C C115A, -1.07; that for C49U A103C U112C, -3.22.
As for G48C C56G C62U U78C C115U C124A, the “polymerase ribozyme fitness (log ratio)” value is -2.1.
On to G48U A84C C115A, for which the “polymerase ribozyme fitness (log ratio)” value was -1.64.
With G48C C64U, the “polymerase ribozyme fitness (log ratio)” value was -1.12.
With G48U U59G C72U C94G the figure was -1.86; with A50C C88A U130C U133A, -0.495.
The result for C49U C70U reads -1.33; that for G48A A100U, -1.19; that for C49G C101A C124U, 0.417.
As to G48A G117C, the “polymerase ribozyme fitness (log ratio)” value was -3.17.
The result for G48C U92A C104U reads -3.44; that for A50G A75U C80U U81A C114U U133C, -4.62.
Turning to G48A G110A, the “polymerase ribozyme fitness (log ratio)” value is -1.6.
The result for C49A G135U reads -1.83; that for C49A C94A A103C, -5.92.
The result for C49U U54A U92C G120C G128A reads -4.05; that for C49A A74C C94U U116A, -3.09.
For the variant G48A C73A G127C, the “polymerase ribozyme fitness (log ratio)” value was -1.15.
With C49G G63U U92C the figure was -3.98; with G48U G60C C70U U78G, -5.9; with G48U U112A, 0.632.
On to C49U C85G U96G, for which the “polymerase ribozyme fitness (log ratio)” value was -2.99.
For G48A G128U, the “polymerase ribozyme fitness (log ratio)” value was -2.69.
With G47U U87G U129A the figure was -4.44; with C49G U96A U112A, -0.269; with G48U U54G, -0.42.
The result for G48U G63U C86U reads -1.38.
G48A G63A U116C G122A: the “polymerase ribozyme fitness (log ratio)” value was -5.7.
With G48U C73U U109A G110U A119U the figure was -4.88; with C49A G60A G135C, -0.655.
For A50G C82A G120U, the “polymerase ribozyme fitness (log ratio)” value was -0.452.
With C49U A119U C123U, the “polymerase ribozyme fitness (log ratio)” value came out at 0.0952.
With G48A C56G the figure was -0.92.
The result for G48C C101U U112C reads 0.0907; that for A50G G51U C89A C124U, -4.23.
The result for C49U G65C C104G C123A reads -7.83; that for C49U C94A, -2.8.
On to G48U C53G G69U, for which the “polymerase ribozyme fitness (log ratio)” value was -0.128.
Turning to A50G G51A, the “polymerase ribozyme fitness (log ratio)” value was -1.11.
With C49A G71A C98G A100C the figure was -7.02.
Regarding C49U A90G C124A, the “polymerase ribozyme fitness (log ratio)” value is 1.48.
Regarding G48C G51C G57U, the “polymerase ribozyme fitness (log ratio)” value was -2.77.
With G48C G57A the figure was -0.626; with C49G C56U, -0.51.
For the variant C49G C56G, the “polymerase ribozyme fitness (log ratio)” value is -2.98.
For the variant C49A C86G C101A A118U, the “polymerase ribozyme fitness (log ratio)” value is -1.56.
With C49U U78C the figure was -1.
The result for A50C G57U G69A G120A G127A reads -3.95.
The result for G48U C49A C115U U133C reads -2.27; that for C49A C86A U129G, -1.96; that for A50C C70U A105U, -3.71.
In the case of A50G G63U A66G U130A, the “polymerase ribozyme fitness (log ratio)” value is -4.03.
The result for A50C U125A reads -0.974.
With C49U U55G the figure was -0.735.
Consider C49U G71C C94G, for which the “polymerase ribozyme fitness (log ratio)” value is -2.87.
The result for A50G G52C G71U C79A G110U reads -4.97.
Consider G48C C49A U78G U81G, for which the “polymerase ribozyme fitness (log ratio)” value is -1.87.
Turning to G48U G57U G63A U96G A100C C102G G120C, the “polymerase ribozyme fitness (log ratio)” value was -6.73.
With G48A U106A the figure was -0.42; with A50C U116C, -1.32; with G48A G69U C72U U126G G128A U132A, -2.53.
The result for G48A C80A reads -2.53.
The result for C49U G58C reads -0.728; that for G48C G93U U96A A111G, -5.62; that for G48U G57U A75G A83C G117A, -4.82.
In the case of C49A C73U G120U, the “polymerase ribozyme fitness (log ratio)” value was -0.216.
Turning to G48A U133G, the “polymerase ribozyme fitness (log ratio)” value is -1.38.
With C49U G61U C86A the figure was -1.79; with C49U G51U, -5.95.
Take A50C C53U C72U G127A U133A: the “polymerase ribozyme fitness (log ratio)” value was -3.63.
The result for A50C C123A reads -0.166.
With C49U C62A C115A G122A, the “polymerase ribozyme fitness (log ratio)” value is -2.37.
With G48A C82U the figure was -0.23.
The result for C49A C56A U59A C73G C114A G128C reads -8.01; that for C49G G63A U78A C99A, -8.17.
For A50G C79G U87G, the “polymerase ribozyme fitness (log ratio)” value is -0.314.
Take A50G G69U C86G: the “polymerase ribozyme fitness (log ratio)” value is -0.754.
For the variant G48A G61C C88A C97U C115G A119G U126A, the “polymerase ribozyme fitness (log ratio)” value is -3.38.
Consider G48C A74U, for which the “polymerase ribozyme fitness (log ratio)” value is -0.843.
Regarding C49A A84C C99U, the “polymerase ribozyme fitness (log ratio)” value was -3.55.
The result for C49A U55C reads -1.24; that for C49A C72G C89G G113U, -5.04; that for G48A G63A A75G, -1.21.
The result for C49A G113C G120U reads -4.69; that for G48A G71C U96C, -1.75; that for A50C A100C C104U G120C G127U, 0.167.
